2 molecules from paper doi:10.1101/2024.11.22.624932 can be followed below.

Assay [1] has as its target synthetic nanobody (sybody) Sb44. As to the kind of experiment: SEC. Background: In gel filtration, larger molecules generally elute earlier.
Assay [2] concerns the target Sb44 V100C. Kind of assay: SEC.
The target in assay [3] is Sb44 V100C. Kind of assay: SDS-PAGE under non-reducing and reducing conditions.

B1: synthetic nanobody (sybody) Sb44 (VHH)
VHH: QVQLVESGGGLVQAGGSLRLSCAASGFPVGRASMWWYRQAPGKEREWVAAISSYGWVTAYADSVKGRFTISRDNAKNTVYLQMNSLKPEDTAVYYCEVSVGTGYRGQGTQVTVSA
For B1, the stoichiometry N in assay [1] worked out at 2.

B2: Sb44 V100C (VHH)
VHH: QVQLVESGGGLVQAGGSLRLSCAASGFPVGRASMWWYRQAPGKEREWVAAISSYGWVTAYADSVKGRFTISRDNAKNTVYLQMNSLKPEDTAVYYCEVSCGTGYRGQGTQVTVSA
For B2, the stoichiometry N with Sb44 V100C [2] and in the assay with Sb44 V100C [3] was 2 throughout.

The term stoichiometry N denotes the number of molecules, sites or subunits per partner or assembly.
